Measured values as given in US20260209374A1 (ENOSI THERAPEUTICS, published 2026).
Where a chain is given by its changes, count along the chain named. Where “and” joins values, the source holds several entries; their conditions need not be identical. Equal entries are not always repeated.

T1: human soluble TNFR1 (human, UniProt P19438 30-211)
T1 construct: also called hTNFR1; hTNFR-1
T1 sequence: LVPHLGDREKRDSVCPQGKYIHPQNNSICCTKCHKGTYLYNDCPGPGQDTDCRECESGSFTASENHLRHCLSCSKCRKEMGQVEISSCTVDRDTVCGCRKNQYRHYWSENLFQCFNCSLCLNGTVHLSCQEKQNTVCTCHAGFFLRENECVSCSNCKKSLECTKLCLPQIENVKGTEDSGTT

T2: TNFR1 on the cells of the TNF-dependent bioassays (THP1 cells in Examples 4 and 6) (human, UniProt P19438 30-455)
T2 sequence: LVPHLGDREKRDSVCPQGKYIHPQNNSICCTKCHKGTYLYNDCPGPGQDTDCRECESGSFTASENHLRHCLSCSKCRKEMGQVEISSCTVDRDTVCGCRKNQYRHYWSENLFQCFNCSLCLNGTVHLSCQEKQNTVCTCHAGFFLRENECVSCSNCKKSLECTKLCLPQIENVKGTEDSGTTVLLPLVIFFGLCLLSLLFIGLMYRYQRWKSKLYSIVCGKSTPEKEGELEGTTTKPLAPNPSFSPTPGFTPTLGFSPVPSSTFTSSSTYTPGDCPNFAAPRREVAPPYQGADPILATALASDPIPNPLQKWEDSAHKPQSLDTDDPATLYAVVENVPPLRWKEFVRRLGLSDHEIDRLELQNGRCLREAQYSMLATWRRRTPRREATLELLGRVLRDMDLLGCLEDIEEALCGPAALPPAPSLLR

T3: human soluble TNFR2 (human, UniProt P20333 23-257)
T3 construct: also called hTNFR2; TNF receptor type 2
T3 sequence: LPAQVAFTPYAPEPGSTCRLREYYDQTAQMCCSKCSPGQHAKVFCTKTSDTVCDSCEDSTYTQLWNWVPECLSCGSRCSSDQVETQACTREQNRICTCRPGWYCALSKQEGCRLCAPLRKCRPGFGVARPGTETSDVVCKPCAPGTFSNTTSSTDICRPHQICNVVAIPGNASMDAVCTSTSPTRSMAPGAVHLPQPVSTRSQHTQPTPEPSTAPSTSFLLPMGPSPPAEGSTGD

T4: Human TNFR1/CD120a protein, His & Avi tag (human, UniProt P19438 30-211)
T4 construct: Captured on HIS1K or streptavidin biosensors; also called TNFR1-His-avi tag protein; immobilized soluble human TNFR1; not shown: His tag and Avi tag
T4 sequence: T1 sequence

T5: extracellular domain of TNFR-1 (Example 4) (UniProt P19438 30-211, limits assumed)
T5 construct: extracellular domain; also called TNFR1 extracellular domain
T5 sequence (looked up): T1 sequence

B1: EN-1206-Fc-BV (Fc fusion)
chain: EVQLLESGGGLVQPGGSLRLSCAASGFTFAHETMVWVRQAPGKGLEWVSHIPPDGQDPFYADSVKGRFTISRDNSKNTLYLQMNSLRAEDTAVYHCALLPKRGPWFDYWGQGTLVTVSSDKTHTCPPCPAPEAAGGPSVFLFPPKPKDTLYITREPEVTCVVVDVSHEDPEVKFNWYVDGVEVHNAKTKPREEQYNSTYRVVSVLTVLHQDWLNGKEYKCKVSNKALGAPIEKTISKAKGQPREPQVYTLPPSRDELTKNQVSLTCLVKGFYPSDIAVEWESNGQPENNYKTTPPVLDSDGSFFLYSKLTVDKSRWQQGNVFSCSVMHEALHNHYTQKSLSLSPGK
notes: Homodimeric, bivalent; In some paragraphs 'EN1206' also means the HSA fusion or the dAb itself; also called EN1206-BV; EN1206 bivalent
B2: EN-1206-Fc-MV (Fc fusion)
chain 1: B1 chain with T265W
chain 2: DKTHTCPPCPAPEAAGGPSVFLFPPKPKDTLYITREPEVTCVVVDVSHEDPEVKFNWYVDGVEVHNAKTKPREEQYNSTYRVVSVLTVLHQDWLNGKEYKCKVSNKALGAPIEKTISKAKGQPREPQVYTLPPSRDELTKNQVSLSCAVKGFYPSDIAVEWESNGQPENNYKTTPPVLDSDGSFFLVSKLTVDKSRWQQGNVFSCSVMHEALHNHYTQKSLSLSPGK
notes: One-armed (monovalent) knob-into-hole heterodimer; the leader is cleaved on expression; also called EN1206-MV; EN1206-mv
B3: Vhh-4 (VHH)
VHH: EVQLLESGGGLVQPGGSLRLSCAASGFTFAHETMVWVRQAPGKGLEWVSHIPPDGQDPFYADSVKGRFTISRDNSKNTLYLQMNSLRAEDTAVYHCALLPKRGPWFDYWGQGTLVTVSS
B4: EN-1000-206 (VHH)
VHH: B3 VHH
B5: Vhh-2 (VHH, not shown: small tags and cut ends)
VHH: EVQLLESGGGLVQPGGSLRLSCAASGFTFSQYRMHWVRQAPGKSLEWVSSIDTRGSSTYYADPVKGRFTISRDNSKNTLYLQMNSLRAEDTAVYYCAKAVTMFSPFFDYWGQGTLV

What was measured:
human soluble TNFR1 [1] = target: T1, human soluble TNFR1; assay: SPR; VHH-Fc captured by anti-human IgG (Fc) antibody on CM5 sensor chip, human soluble TNFR1 as analyte
Source text: CM5 sensor chip (Cytiva #BR100530) was coated with an anti-human IgG (Fc) antibody (Cytiva #29234600) to capture the EN1206-BV and EN1208-BV. The human soluble TNFR1 was used as analyte for binding flow.

[2] = target: T2, TNFR1 on the cells of the TNF-dependent …; assay: cell-based or functional assay
human soluble TNFR1 [3] = target: T1, human soluble TNFR1; assay: SPR; VHH-Fc captured on Series S Protein A sensor chip, human soluble TNFR1 as analyte (0.781-100 nM), 1:1 binding fit
Source text: (§1) Series S Sensor Chip Protein A (Cytiva #29127556) was used to immobilize the Fc portion of the VHH/Fc proteins. The human soluble TNFR1 and TNFR2 are used for the SPR binding flow.

human soluble TNFR2 [4] = target: T3, human soluble TNFR2; assay: SPR; VHH-Fc captured by anti-human IgG (Fc) antibody on CM5 sensor chip, TNFR2 as analyte
[5] = target: T4, Human TNFR1/CD120a protein, His & Avi …; assay: BLI, Octet RED96; TNFR1-His-Avi immobilised on anti-penta-His (HIS1K) biosensor, EN1206-mv 0.412-100 nM
Protocol: An Octet instrument RED96 was used for the assay. Octat anti-penta His biosensor (HIS1K) and Octet Streptavidin (SA) biosensor were used to immobilize the TNFR1-His-avi tag protein. […] Octet RED96 was used to measure the binding affinity of EN1206-mv and EN1208-bv. […] A dose-dependent binding of EN1208-bv to the immobilized TNFR1 on SA chip was detected within the concentration range of 3.7 nm to 300 nM (FIG. 11B).
The experiments started with the determination of the binding specificity and affinity of EN1206 and EN1208 to the immobilized human soluble TNFR1. A concentration-dependent binding of EN1206 and EN1208 to the TNFR1 was observed, respectively (Table 15, FIGS. 11A-11B). Due to a lack of detectable dissociation of EN1208-BV after its binding to the immobilized TNFR1 within the dissociation assay time frame (~5 min), the on-rate (ka) and off-rate (kd) could not be calculated. Thus, an affinity (KD) for EN1208 was estimated (Table 15).

human soluble TNFR2 [6] = target: T3, human soluble TNFR2; assay: SPR; VHH-Fc captured on Series S Protein A sensor chip, human soluble TNFR2 as analyte
Source text: as §1

[7] = target: T5, extracellular domain of TNFR-1 (Example …); assay: competition assay, Vhh inhibition of TNF-α binding to TNFR1 extracellular domain; competitor TNF-α
Protocol: Competition assays of Vhh inhibition of TNF-α binding to TNFR1 extracellular domain also were performed as described in Richter et al. (2019).

human soluble TNFR1 [8] = target: T1, human soluble TNFR1; assay: SPR (format not described)
[9] = target: T2, TNFR1 on the cells of the TNF-dependent …; assay: cell-based or functional assay; remark: listed apart in the source
[10] = target: T5, extracellular domain of TNFR-1 (Example …); assay: SPR (Biacore method)

Row | Binder | fold improvement over Etanercept in inhibition of IL-8 expression, TNF-stimulated THP1 cells (qPCR) [2] [fold] | fold improvement over Etanercept in inhibition of TNF expression, TNF-stimulated THP1 cells (qPCR) [2] [fold] | relative gene expression of IL8/CXCL8 (qPCR, THP1 cells, TNF 100 ng/ml), 1 nM inhibitor, against baseline [2] [fold] | relative potency against 206dAb, suppression of TNF-induced expression of IL8/CXCL8 in THP1 cells, 1 nM [2] [fold] | relative potency against 206dAb, suppression of TNF-induced expression of TNF in THP1 cells, 1 nM [2] [fold] | Kd (human soluble TNFR1 [3]) [nM] | TNF Dependent Bioassay (IC50): VCAM [9] [nM] | Kd [10] [nM] | also measured
1 | B1 | 5.9 | 15 | 1.75 | 7 | 6.5 | 0.185 | – | – | Kd (human soluble TNFR1 [1]): 1.49 nM; binding result (human soluble TNFR2 [4]): no binding
2 | B2 | 10.6 | 6.8 | 1.75 | 9.3 | 9 | 0.388 | – | – | Kd [5]: 0.314 nM; koff [5]: 0.000284 s⁻¹; kon [5]: 903000 M⁻¹ s⁻¹; binding result (human soluble TNFR2 [6]): no binding
3 | B3 | – | – | – | – | – | – | 0.3 | 0.00066 | IC50 [7]: ~1 nM; Kd (human soluble TNFR1 [8]): 0.407 nM and 0.3 nM to 0.5 nM (2×)
4 | B4 | – | – | 8 | – | – | – | – | – | –
5 | B5 | – | – | – | – | – | – | 3 | 1000 | –
